PMC6637204, “Inactivating mutations and X-ray crystal structure of the tumor suppressor OPCML reveal cancer-associated functions” (Nature Communications, 2019)

Tests used:
gel filtration = details: glycan lost; control: wild type
[1] = Caspase-Glo 3/7 assay, SKOV3; details: glycan lost; control: wild type
[2] = SYPRO Orange thermal shift assay; details: glycan lost; control: wild type
[3] = western blot, transduced SKOV3, PEA1, PEO1; details: glycan lost; control: wild type
[4] = MTS viability, R428 IC50, SKOV3; details: glycan lost; control: wild type
[5] = recombinant secretion from insect cells; details: glycan lost; control: wild type
[6] = immunofluorescence confocal microscopy; details: glycan lost; control: wild type
[7] = target: the molecule itself; assay: SAXS; WT OPCML in 50 mM HEPES pH 7.5, 200 mM sodium chloride, 2% glycerol, 0.02% sodium azide; three concentrations merged; fit to dimer and monomer models
[8] = target: the molecule itself; assay: SEC; gel filtration; dilutions equilibrated 24 h, 50 µL on Superdex 200 10/30 GL at 0.5 mL/min; peak elution volume against concentration fit to a monomer-dimer equilibrium (dimer to monomers)
[9] = target: the molecule itself; assay: SEC-MALLS; samples at 1 µg/µL, 1 mL/min in PBS pH 7.4, room temperature
[10] = target: the molecule itself; assay: SDS-PAGE without heat denaturation, western blot; extracts of transduced cells run without prior heat denaturation, anti-OPCML blot

B1: OPCML: N70H (protein)
parent chain: MGVCGYLFLPWKCLVVVSLRLLFLVPTGVPVRSGDATFPKAMDNVTVRQGESATLRCTIDDRVTRVAWLNRSTILYAGNDKWSIDPRVIILVNTPTQYSIMIQNVDVYDEGPYTCSVQTDNHPKTSRVHLIVQVPPQIMNISSDITVNEGSSVTLLCLAIGRPEPTVTWRHLSVKEGQGFVSEDEYLEISDIKRDQSGEYECSALNDVAAPDVRKVKITVNYPPYISKAKNTGVSVGQKGILSCEASAVPMAEFQWFKEETRLATGLDGMRIENKGRMSTLTFFNVSEKDYGNYTCVATNKLGNTNASITLYGPGAVIDGVNSASRALACLWLSGTLLAHFFIKF
other: aggregation (gel filtration): increases
other: R428-induced apoptosis [1]: abolishes
stability_or_folding, Tm [2]: decreases
expression_or_secretion [3]: no change
other: sensitisation to AXL inhibitor [4]: abolishes
expression_or_secretion [5]: decreases
localisation_or_trafficking [6]: no change

B2: soluble recombinant wild-type OPCML (residues 36-316, D1-D3) (domain or fragment, human, UniProt Q14982 36-316, looked up)
chain: ATFPKAMDNVTVRQGESATLRCTIDDRVTRVAWLNRSTILYAGNDKWSIDPRVIILVNTPTQYSIMIQNVDVYDEGPYTCSVQTDNHPKTSRVHLIVQVPPQIMNISSDITVNEGSSVTLLCLAIGRPEPTVTWRHLSVKEGQGFVSEDEYLEISDIKRDQSGEYECSALNDVAAPDVRKVKITVNYPPYISKAKNTGVSVGQKGILSCEASAVPMAEFQWFKEETRLATGLDGMRIENKGRMSTLTFFNVSEKDYGNYTCVATNKLGNTNASITLYGPGA
modifications: N-linked glycans modelled at asparagines 70, 293 and 306
notes: OPCML, human, UniProt Q14982, residues 36-316 (D1-D3); also called WT OPCML; rOPCML; source: Hi5 insect cells, baculovirus, secreted; purified (protein A, thrombin digestion, negative protein A, HiTrap Q, SEC); not shown: Fc (human IgG1, UniProt P01857 residues 118-330, joined by ALVPRGS), C-terminal, cleaved
stoichiometry N [7]: 2

B3: soluble recombinant OPCML R65L (residues 36-316) (domain or fragment, human, UniProt Q14982 36-316, looked up)
chain: ATFPKAMDNVTVRQGESATLRCTIDDRVTLVAWLNRSTILYAGNDKWSIDPRVIILVNTPTQYSIMIQNVDVYDEGPYTCSVQTDNHPKTSRVHLIVQVPPQIMNISSDITVNEGSSVTLLCLAIGRPEPTVTWRHLSVKEGQGFVSEDEYLEISDIKRDQSGEYECSALNDVAAPDVRKVKITVNYPPYISKAKNTGVSVGQKGILSCEASAVPMAEFQWFKEETRLATGLDGMRIENKGRMSTLTFFNVSEKDYGNYTCVATNKLGNTNASITLYGPGA
notes: OPCML, human, UniProt Q14982, residues 36-316 (D1-D3), clinical somatic mutation R65L; Same construct as m1 with R65L; PDB 5UV6 is the wild-type parent; ALVPR probably left at the C-terminus after thrombin (surmised); also called rR65L; source: Hi5 insect cells, baculovirus, secreted; purified (protein A, thrombin digestion, negative protein A, HiTrap Q, SEC); not shown: Fc (human IgG1, UniProt …)
fold weaker Kd than WT OPCML [8]: ≥ 250 fold

B4: soluble recombinant OPCML P95R (residues 36-316) (domain or fragment, human, UniProt Q14982 36-316, looked up)
chain: ATFPKAMDNVTVRQGESATLRCTIDDRVTRVAWLNRSTILYAGNDKWSIDPRVIILVNTRTQYSIMIQNVDVYDEGPYTCSVQTDNHPKTSRVHLIVQVPPQIMNISSDITVNEGSSVTLLCLAIGRPEPTVTWRHLSVKEGQGFVSEDEYLEISDIKRDQSGEYECSALNDVAAPDVRKVKITVNYPPYISKAKNTGVSVGQKGILSCEASAVPMAEFQWFKEETRLATGLDGMRIENKGRMSTLTFFNVSEKDYGNYTCVATNKLGNTNASITLYGPGA
notes: OPCML, human, UniProt Q14982, residues 36-316 (D1-D3), clinical somatic mutation P95R; Same construct as m1 with P95R; PDB 5UV6 is the wild-type parent; ALVPR probably left at the C-terminus after thrombin (surmised); also called rP95R; source: Hi5 insect cells, baculovirus, secreted; purified (protein A, thrombin digestion, negative protein A, HiTrap Q, SEC); not shown: Fc (human IgG1, UniProt …)
stoichiometry N [9]: 2

B5: wild-type OPCML expressed in transduced cancer cells (natural protein, human, UniProt Q14982 28-322, looked up)
chain: GVPVRSGDATFPKAMDNVTVRQGESATLRCTIDDRVTRVAWLNRSTILYAGNDKWSIDPRVIILVNTPTQYSIMIQNVDVYDEGPYTCSVQTDNHPKTSRVHLIVQVPPQIMNISSDITVNEGSSVTLLCLAIGRPEPTVTWRHLSVKEGQGFVSEDEYLEISDIKRDQSGEYECSALNDVAAPDVRKVKITVNYPPYISKAKNTGVSVGQKGILSCEASAVPMAEFQWFKEETRLATGLDGMRIENKGRMSTLTFFNVSEKDYGNYTCVATNKLGNTNASITLYGPGAVIDGVN
notes: OPCML, human, WT cDNA from pENTR4 shuttled to pLenti CMV Puro DEST; GPI-anchored, membrane-localized; also called WT OPCML; WT; source: SKOV3, PEA1, PEO1 and HCT116 cells, stably transduced (lentivirus, pLenti CMV Puro DEST); on cells or in lysate
stoichiometry N [10]: 2
